Source: paper PMC9637154
Read-outs that look alike come from different tables or passages of the source.

Experiments:
[1] = glycan lost
[2] = focus reduction neutralization test, Vero E6 cells; details: glycan lost; control: shACE2-wt
[3] = cell-surface biotinylation, anti-hACE2 western blot; details: glycan lost; control: full-length hACE2 wt

Substance	other: virus entry into hACE2-expressing cells [1]	other: virus entry into hACE2-expressing cells, fold_change [1]	other: decoy neutralising activity of shACE2, other: FRNT50 [2]	expression_or_secretion [3]	other: decoy neutralising activity of shACE2, other: FRNT50 [1]
angiotensin-converting enzyme 2 (hACE2): N90A	increases	increases	increases	no change	–
angiotensin-converting enzyme 2 (hACE2): N90S/N322S	increases	increases	–	–	–
angiotensin-converting enzyme 2 (hACE2): N322S	increases	–	–	–	–
angiotensin-converting enzyme 2 (hACE2): N90A/N322A	increases	increases	increases	no change	increases
angiotensin-converting enzyme 2 (hACE2): N90S	increases	–	–	–	–
angiotensin-converting enzyme 2 (hACE2): N53A/N90A/N322A	increases	increases	increases	no change	–
angiotensin-converting enzyme 2 (hACE2): N53A	decreases	decreases	–	no change	–
angiotensin-converting enzyme 2 (hACE2): N322A	increases	increases	–	no change	–
